Experimental data published in the supplement of paper PMC12636428.

System: Saccharomyces cerevisiae
Assay: transcriptional activation domain activity (GFP:mCherry ratio, weighted mean of sorted bins, harmonized to initial dataset scale) (arbitrary fluorescence ratio units); higher = stronger transcriptional activation
Settings: beta-estradiol 1 µM; induction time 4 h
Procedure, shortened: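 Activation activity, the read-weighted mean of bin median fluorescence averaged across barcodes, was linearly mapped onto the scale of the initial dataset. It was measured for barcoded protein tiles fused to an estradiol-inducible synthetic transcription factor at URA3 in GFP-reporter yeast diploids. Cultures diluted 1:5 into SC with 1 uM beta-estradiol were held 4 hours at 30 °C, sorted into 8 bins by GFP:mCherry ratio, and barcode-sequenced, and tiles under 50 reads were discarded.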

| Sequence | transcriptional activation domain activity |
| --- | --- |
| SLVLQTVFLYMVERVDICIDYLKVHRRFREAEVYLLRFQQCMTRAMTLIKMYF | 75700 |
| SHREEAHEKASESESESGSEEQGSGGEKSEPKPEAEADGAADEASPGEEEGSQ | 24600 |
| MWEVLWAFSFLAGDIFVFFLSLALYIYPNHLVSPLLPGCVKPPVGMYWFLVFQ | 44000 |
| DEGESAAPADSAAQAQHLDATKKGHYKLSSFISHKGPSVHCGHYVSHIKKGDQ | 51800 |
| MLLTVYMFIIVFSFFICYHYINLVLQILIAGLLYGLSYVRFSMNWIIYFYNQC | 78400 |
| VTLVKRVDLFWYFVPNSVCWSCVVERSIALDVAERYLGRETNATPPWIRGLLP | 32500 |
| MFALLEILCLICILLLTKPRCLCFSIRLEILIFFSFFFFFFCIFLVGYTLSTL | 80600 |
| MPTLLVSLCSFFPWPLFLSFLFLVFHTFASLVIVQKSHFILSYILIMHLSFFA | 46300 |
| AYTATNVGIPFNRAMDHLHRMMSRFEYCIFEGTSLPVFGIIGLQVRCQWLGCS | 73700 |
| RVSDYSMAQFRFLLKFLLVHGRWNYIRICKYTISTFWKELLFYLTQAMYQRWN | 28800 |
| IVLSVLCSLLNTTLKYNPATWRVPYDHVVFKDSRQILVSYCLQFLLVLILYPV | 46600 |
| NGHGTHCSGTVAGKKYGVAKKANIKAVKVLRSNGSGTMSDVVKGVEFAAEQHS | 15600 |
| DGKWCLRFVPRGQRWLLAITRDFTDTAMMSVAARMVWHPIAYTVCLLPVTIAR | 55000 |
| MLARFKWSMWRMSLVRALRASLNITLFFYFLFPPRYSYVFLFLFLSFFLFFFS | 32500 |
| AQPSAGFGQPSTIGAKPNPFGAPAFGQPAQPAGPAFGQPSQPTTTAAFGQPSQ | 29900 |
| ESEEEVAAGSSANGKKQSGTRDSSKRSKKSDSKSEAKRSDKAEGAAEKTAPES | 18500 |
| MARNIYVIYIPKSICCSLPLSVPLSLLPLPSLPLFPSLTSTLLFFVLFHFFLL | 49600 |
| MVYCISFCLALFESLLYSIVADTNILIHYFLFFLLLFCQFVYFLNNTFFIFLS | 51800 |
| MVFFFFFFFLEGGGLVGWLCSALIFPLSFFLSSKLCLLLPLYYYSNCVFFFLC | 75600 |
| MYILTIIPFFKHMSFFSFFLSCFFMSLLIVLLLLLLLLFSLLLLLLFFFPRPL | 54400 |
| LALCQLKFWAIFSSIKHVNGLLKHSYPFDRSNFNVLVKSLIRGMFYKFQERQD | 40100 |

| Sequence | transcriptional activation domain activity |
| --- | --- |
| MLGSARVWQKRACMGFSFSLVIVSFTPPHRLFSHVQLGSIVSLLFFVTLFNFM | 20700 |
| LRQRILYIYKWFLRKIYPSINAAYYLSILSFSLMYLFDNTKYSNPFLWLIHTR | 63900 |
| NPTDTILILATSLPTVSTFFINYLLLQGLIGSAIELTQAYRLLWNIVIVRWFA | 54500 |
| GEKATEAANGEGSGTEGSRRRASGRGRGRGRGRNGRGGARGGRAGDAEEKKEG | 9280 |
| QFALLLGSFLCVAISCFGHLALLFLWLIAPFYFLVFLFWQSFNLFLFVSVCCG | 44700 |
| WATVYLWTCHYQLLVYICTLIIIETRGFLKLGYVFLITLLLLSCIPHILLHVI | 30300 |
| MILARMLHIYIYKEIVDLTNVCIKCIKIISSEVRRVVLFNLDQTYETIPYIVE | 66600 |
| PAPAPMGRRTFAVDVDESAHSLAKKVKAARVRGYNYIIVVGERDAERGTAAVQ | 44800 |
| NPLIIYSSQYSVWTMSFSLFFCVFWFLMAGCNFVRPSALHRVYSLIWMFILGW | 51800 |
| KGGRKCKKGRAGEEAGMPARRRKGGERGGRGGKTGARGGEEGGGGEGGAARNG | 34800 |
| MSFLHCFFHVRYFPSNLFVIVIMFLLLFVHSFARGWRMEYAVSFLFNSLVLMY | 61700 |
| DGSNGIAQLFGVVFFLFFFLHIYYICWALGLVGFVSGRRGNIVWFVLLCLFLS | 63800 |
| AFLVGGGSAFWVLGYGLFYWASRLSLDSFTSVMLYLGYLLLLVLLVFLVTGTI | 42700 |
| EDGESTKTKDAGRKRKRSTGEGEREDKGADGTKENKKKRKLASEKEKESDKEN | 27400 |
| AAGPGNNDLDDTDTDNQQFFLSDMNLNGSSVFENVFDDDDDDDDVETHSIVHS | 28900 |
| VSSSSSSSSRTRKGGGDDEEVEGKERSATENKKKKLGKKGRIAARTKEKAAAA | 6920 |
| FILGYYWGDARLFGLSVRFMSLFSWFRVVHRVLPRLLPMRFKGPGKYVVTYDA | 58500 |
| MQIQALAFPSYCQNTLFMPCTSIVCLDFFFLLHIFPLVPRSLDVFFLFLLVHL | 76400 |
| MNYLELSLVILTCLWDILLVVTFCSYRRIFRRVNMVNIMTISLLKHLSVFCLF | 52300 |
| MVLINIPNFLFSLFFFLFSFFSLLPFFTYLTFLSSSSLLLSTFCCSLASSPCM | 50000 |
| FFFFLLFFPLPFFPSSFPFFFLIHLLISSSLVFPFSSSSSSLTQVFWCLCFFF | 57400 |

| Sequence | transcriptional activation domain activity |
| --- | --- |
| SFTSKLNNPQFLGSLDLEILEELEKLISAQEFSRNFTEDVDESLQSEIDLMNY | 146000 |
| KLGVCLLLILDSLHTTFCIYAMYWYLVINFGVFPELAMMHWSFEAQQMLNVLV | 37800 |
| VLDLVCIKFLSLFTFYIFLLLYLSIFQIICFFLFPFLFLFFPSCPLRRFLFSY | 47000 |
| STAARTHGSKRSRDEEDGEGEERAKKRSRSEERVNTTRETRATRATRATSARP | 31100 |
| GLQGQYNAYSTKHNINVPHGDILVFSLACGQIMYAWLMRPDTLPISYSNWICN | 39300 |
| KDQIMYYIHLVIMISTIIQALVQHMIVVNTLPTYFCHPINVFSNFFWHVQFTL | 39300 |
| SATPATSEAAKPATSSLFGNGSSTTTAGATAAKPSLFGAAQSTPTTQPATTGA | 38800 |
| NANNANTNANANNNAATTNANANGNGKKGKNNNNNANANANANANAAAAAAAG | 18400 |
| SSEGGEENKAEEAELEKADKPKEETTEEKKSEEEKPEEKKPEEKKPEETKAEN | 18500 |
| LCREVIIGGILGGILVFLVISLFFLIGHFFLFFVVLFLLLFNTTLCSLLVEVL | 18900 |
| KGKQRSEGGGGNRKGGRPPRRIDEDAADSSSNDAGAEGGAKGSEPTKAAKAAS | 33400 |
| MSPSGAVPSTAQVVPGACVNIVLKADQRTGRQVSGTVRDVLTRGDHHRGIKVR | 41300 |
| LWHLVYEPILKGIHEHLLLLDEIIEIFGPDVEKELFRRVYYYLSLLCMHSGTH | 24600 |
| GQLLVALAREAFTLVTWRTTLQGKLEVEIFPPSDLLLNRYMWYVLHLLDHTSL | 13100 |
| SDSDEEDEDERAEDAEVDTSASVNRLRDAQAEVETGDVTRRIAIVNLDWDHIK | 29200 |
| EGLGTAWLFKKEDLLCKSAYEIATISNSWLCGVQGTLLMYLVLVLLCLSFFLI | 30800 |
| FFCFVFLAHYTWLIKHGFQTHLLELGSFFSDLSLIICFFLLIMHLFCVTPFFR | 68400 |
| MKSLPFGIHTAVCDLISLLLLLLLFFFFFFLLASIWVLDNFFPFFPFSRHLYS | 37500 |
| WFRDMRFPYVPRAFSRLLKNLLVAVYVSLFNSCIFWFTSSRLHPQRRFIARYL | 64800 |
| VVCHFVIMMASMSYKIVICVIIGVHADLMVMDARWRSLGSWLYLLCGVIVAPA | 67300 |
| WRILLIVHLFGPFSLVDELLLPFKSSTSIFLFGILYIYCLFVLFLAYMILSIL | 32600 |

| Sequence | transcriptional activation domain activity |
| --- | --- |
| ERVIGGIQEDLLLIKTFLTRLSLSHHIHNFHADSWSLGHLASLSWYSFMVWFL | 80000 |
| GASSSAAAAGSSEEAPKKKRGRPPKEKKADESGAETEPAPKRKRGRPPKNPKP | 21200 |
| PLHLLGDKAEVEIGGVWSAGMAYGSRELVERHLFSLYFMLPLVAVCIGFLYHN | 41200 |
| NQRLREDGVDEIELDIISKLHPSRKDTAPRDIKPIPASKRGEISSKFEKLHEQ | < 6570 |
| RNLMVIVLVVGNLRLMIENLQKYGVLICLHCHDFRRSDILLGLGLYFLIPCHL | 64000 |
| QHNASQPGDLHSVLHRNQREGQHSVNQLVDRHSESQRGGQHNVNQQRDLQHGN | 33400 |
| PKDEKKQEDDQKAKDGSKSEGDLGEKKEEKVEEKKDDDNKSGEKKDEASKSGD | 28000 |
| RVVSAFGWKADKHLGFALLKLCLEDRRIRSPMASLMLLAYYTVLTSLCPQVLA | 60900 |
| MSLFMLRTLPSFVCSSFCAMLHFCCSYSLLFYYWALSLPRWLPIPSGFIPIAF | 60200 |
| MLMDLALTLDDLTVRSLSVVGASVFMAFTYATLPATLGWGTWFLLSVWTLIFY | 64200 |
| RAKKDAKESTTSKDTGTGKGAGSSREGRGSRNTSSRGRGSASGRQSTRKSRAR | 29300 |
| MSPSSAVFFFFFFCIALFDSVWLVSFFMVLFFLFDSSLYSLLFFSCLFFFIHS | 50000 |
| IKVQYKGGLIGHQFKDLAQIMSFILYDLGPDTLIECWVRLGWFMSLLWYPKIQ | 58700 |
| NSLRNLFDLVGCSSLCSSSQKRGFVGRLVVDFASCAWPPVIVILLIWISLFWW | 39200 |
| SLVDFHKFFKWLLLKVVKGLNKLRNLHNERPKELQTNEMEHLLNLMKIVRFFA | 46500 |
| VVENHKREVQYARYHCLKSWRLTLDVCLKRAFHLVPTVGRHELLISMLQAIIG | 37300 |
| TSTSGGSLFGGGSTAAPSTGSGGLFGNNSSTPATGAQPGTSLFGKPAGGATAG | 14200 |
| VMPTWLWMPLLLVANFFCRFFLFHLIICSYIYPLLYVQLMWVFWFIWRGVFSF | 55700 |
| ILFIGGLFLIIAPQMTFHVPAYRIRLCEAACFLCRNFLVFLKRKSVAVIVEMF | 59000 |
| GFCMASKTLALVLRHLRRYRWCLVARIRRKATEISTRFCALGGILIIYIRNVS | 73500 |
